T1: recombinant human IL-25 protein (human, UniProt Q9H293 33-177)
T1 sequence: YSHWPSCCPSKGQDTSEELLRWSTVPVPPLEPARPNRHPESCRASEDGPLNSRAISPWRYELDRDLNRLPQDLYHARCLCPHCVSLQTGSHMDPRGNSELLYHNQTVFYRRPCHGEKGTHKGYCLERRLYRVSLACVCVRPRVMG

T2: recombinant mouse IL-25 protein (mouse, UniProt Q8VHH8 17-169)
T2 construct: Bought (Sino Biological Inc, catalog no: 50138-M07H)
T2 sequence: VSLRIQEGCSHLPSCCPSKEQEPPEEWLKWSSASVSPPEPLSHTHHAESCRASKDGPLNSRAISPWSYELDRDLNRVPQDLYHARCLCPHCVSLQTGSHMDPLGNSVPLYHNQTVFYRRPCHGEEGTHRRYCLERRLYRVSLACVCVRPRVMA

T3: recombinant cynomolgus IL-25 protein (cynomolgus monkey, UniProt Q9H293 33-177 (human entry), limits assumed)
T3 construct: Bought (Sino Biological Inc, customized order); also called cyno IL-25
T3 chain: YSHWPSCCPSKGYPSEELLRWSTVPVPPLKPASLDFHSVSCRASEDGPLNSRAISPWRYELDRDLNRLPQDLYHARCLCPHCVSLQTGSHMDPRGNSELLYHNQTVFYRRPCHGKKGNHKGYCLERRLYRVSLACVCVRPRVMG


Experiments:
[1] = biological target: T1, recombinant human IL-25 protein; test: cell-based or functional assay
[2] = biological target: T1, recombinant human IL-25 protein; test: cell-based or functional assay; remark: listed apart in the source
[3] = biological target: T1, recombinant human IL-25 protein; test: cell-based or functional assay; remark: listed apart in the source
[4] = biological target: T2, recombinant mouse IL-25 protein; test: ELISA, IL-25 coated, goat anti-human kappa light chain-HRP detection
Description: (§1) In this study, the ability of three humanized anti-IL-25 antibodies generated in hIgG1 (IL25Ab6 to Ab8) and hIgG1 YTE formats (IL25Ab9 to Ab11) binding to both human, mouse and cynomolgus IL-25 was evaluated using ELISA. Briefly, recombinant human IL-25 protein (Acro, catalog no: IL5-H4221, lot no: 401-20CNF1-UT), recombinant mouse IL-25 protein (Sino Biological Inc, catalog no: 50138-M07H, lot no: LC15AP0607) or recombinant cynomolgus IL-25 protein (Sino Biological Inc, catalog no: customized order, lot no: MB17MA2715) was directly coated to ELISA plates, respectively. Recombinant antibodies were then added to the plates followed by detection using goat-anti-human Kappa Light Chain antibody HRP (Novus, catalog no: NBP1-75064, Lot no: 68-188-010920). After the addition of ABTS (Moss Inc., catalog no: ABTS-1000, Lot no: 03086202) substrate, ELISA plates were read using an ELISA plate reader (Bioteck).

[5] = biological target: T3, recombinant cynomolgus IL-25 protein; test: as above
Description: as §1

[6] = biological target: T1, recombinant human IL-25 protein; test: as above
Description: as §1

[7] = biological target: T1, recombinant human IL-25 protein; test: BLI, Fab; species of IL-25 not stated, taken as human

Binder	IC50, IL-25 induced NF-kB signaling (SEAP) in HEK-Blue IL-17 reporter cells [1] [nM]	IC50, IL-25 induced IL-5 production in human PBMC [2] [nM]	IC50, IL-25 induced CXCL1 production in HT-29 cells [3] [nM]	EC50 [4] [nM]	EC50 [5] [nM]	EC50 [6] [nM]	Kd [7] [nM]	koff [7] [s⁻¹]	kon [7] [M⁻¹ s⁻¹]
IL25Ab7 (antibody, IgG1, V domains shown) VH: QVQLVQSGAEVKKPGASVKVSCKASGYSFTGYTMNWVRQAPGQGLEWMGLINPDNGGTSYKQKFQGRVTMTVDKSISTAYMELSRLRSDDTAVYYCAREGYYGPSPFHHYAMDYWGQGTLVTVSS VL: DIQMTQSPSSLSASVGDRVTITCQASQDISNYLNWYQQKPDGTIKLLIYYTSTLHTGVPSRFSGSGSGTDYTFTISSLQPEDIATYYCQQYSKLPYTFGQGTKLEIK	0.042	0.85	0.183	0.243	0.245	0.327	–	–	–
IL25Ab7 Fab (Fab, V domains shown, VH/VL assigned as for IL25Ab7) VH: QVQLVQSGAEVKKPGASVKVSCKASGYSFTGYTMNWVRQAPGQGLEWMGLINPDNGGTSYKQKFQGRVTMTVDKSISTAYMELSRLRSDDTAVYYCAREGYYGPSPFHHYAMDYWGQGTLVTVSS VL: DIQMTQSPSSLSASVGDRVTITCQASQDISNYLNWYQQKPDGTIKLLIYYTSTLHTGVPSRFSGSGSGTDYTFTISSLQPEDIATYYCQQYSKLPYTFGQGTKLEIK	–	–	–	–	–	–	1.8	0.00029	161000
IL25Ab6 (antibody, V domains shown) VH: QVQLVQSGAEVKKPGASVKVSCKASGYSFTGYTMNWVRQAPGQGLEWMGLINPDNGGTSYKQKFQGRVTMTVDKSISTAYMELSRLRSDDTAVYYCAREGYYGPSPFHHYAMDYWGQGTLVTVSS VL: DIQMTQSPSSLSASVGDRVTITCQASQDISNYLNWYQQKPGKAPKLLIYYTSTLHTGVPSRFSGSGSGTDYTFTISSLQPEDIATYYCQQYSKLPYTFGQGTKLEIK	0.048	0.381	0.225	0.242	0.241	0.302	–	–	–
IL25Ab6 Fab (Fab, V domains shown) VH: QVQLVQSGAEVKKPGASVKVSCKASGYSFTGYTMNWVRQAPGQGLEWMGLINPDNGGTSYKQKFQGRVTMTVDKSISTAYMELSRLRSDDTAVYYCAREGYYGPSPFHHYAMDYWGQGTLVTVSS VL: DIQMTQSPSSLSASVGDRVTITCQASQDISNYLNWYQQKPGKAPKLLIYYTSTLHTGVPSRFSGSGSGTDYTFTISSLQPEDIATYYCQQYSKLPYTFGQGTKLEIK	–	–	–	–	–	–	1.86	0.000249	134000
IL25Ab3 Fab (Fab, V domains shown, VH/VL assigned as for IL25Ab3; also called murine parental Fab) VH: EVQLQQSGPELVKPGGSVRISCKASGYSFTGYTMNWVKQSHGKNLEWIGLINPDNGGTSHKQRFMGKATLTVDKSSSTAYMELLSLTSEDSAVYYCAREGYYGPSPFHHYAMDYWGQGTSVTVSS VL: DIQMTQTTSSLSASLGDRVTISCSASQDISNYLNWYQQKPDGTIKLLIYYTSTLHSGVPSRFSGSGSGTDYSLTISNLEPEDIATYYCQQYSKLPYTFGGGTKLEIK	–	–	–	–	–	–	1.89	0.000285	150000

Second part, the binder after the results:

IC50, IL-25 induced NF-kB signaling (SEAP) in HEK-Blue IL-17 reporter cells [1] [nM]	IC50, IL-25 induced IL-5 production in human PBMC [2] [nM]	IC50, IL-25 induced CXCL1 production in HT-29 cells [3] [nM]	EC50 [4] [nM]	EC50 [5] [nM]	EC50 [6] [nM]	Kd [7] [nM]	koff [7] [s⁻¹]	kon [7] [M⁻¹ s⁻¹]	Binder
0.052	1.43	0.198	0.284	0.266	0.364	–	–	–	IL25Ab10 (antibody, V domains shown) VH: QVQLVQSGAEVKKPGASVKVSCKASGYSFTGYTMNWVRQAPGQGLEWMGLINPDNGGTSYKQKFQGRVTMTVDKSISTAYMELSRLRSDDTAVYYCAREGYYGPSPFHHYAMDYWGQGTLVTVSS VL: DIQMTQSPSSLSASVGDRVTITCQASQDISNYLNWYQQKPDGTIKLLIYYTSTLHTGVPSRFSGSGSGTDYTFTISSLQPEDIATYYCQQYSKLPYTFGQGTKLEIK
0.037	0.953	0.187	0.258	0.239	0.318	–	–	–	IL25Ab11 (antibody, IgG1, V domains shown) VH: QVQLVQSGAEVKKPGASVKVSCKASGYSFTGYTMNWVRQAHGKNLEWMGLINPDNGGTSHKQKFQGRVTMTVDKSISTAYMELSRLRSDDTAVYYCAREGYYGPSPFHHYAMDYWGQGTLVTVSS VL: DIQMTQSPSSLSASVGDRVTITCQASQDISNYLNWYQQKPDGTIKLLIYYTSTLHTGVPSRFSGSGSGTDYTLTISSLQPEDIATYYCQQYSKLPYTFGGGTKLEIK
0.041	1.04	0.199	0.332	0.295	0.404	–	–	–	IL25Ab8 (antibody, IgG1, V domains shown) VH: QVQLVQSGAEVKKPGASVKVSCKASGYSFTGYTMNWVRQAHGKNLEWMGLINPDNGGTSHKQKFQGRVTMTVDKSISTAYMELSRLRSDDTAVYYCAREGYYGPSPFHHYAMDYWGQGTLVTVSS VL: DIQMTQSPSSLSASVGDRVTITCQASQDISNYLNWYQQKPDGTIKLLIYYTSTLHTGVPSRFSGSGSGTDYTLTISSLQPEDIATYYCQQYSKLPYTFGGGTKLEIK
–	–	–	–	–	–	1.78	0.000251	141000	IL25Ab8 Fab (Fab, V domains shown, VH/VL assigned as for IL25Ab8) VH: QVQLVQSGAEVKKPGASVKVSCKASGYSFTGYTMNWVRQAHGKNLEWMGLINPDNGGTSHKQKFQGRVTMTVDKSISTAYMELSRLRSDDTAVYYCAREGYYGPSPFHHYAMDYWGQGTLVTVSS VL: DIQMTQSPSSLSASVGDRVTITCQASQDISNYLNWYQQKPDGTIKLLIYYTSTLHTGVPSRFSGSGSGTDYTLTISSLQPEDIATYYCQQYSKLPYTFGGGTKLEIK
0.043	0.435	0.225	0.232	0.222	0.312	–	–	–	IL25Ab9 (antibody, V domains shown) VH: QVQLVQSGAEVKKPGASVKVSCKASGYSFTGYTMNWVRQAPGQGLEWMGLINPDNGGTSYKQKFQGRVTMTVDKSISTAYMELSRLRSDDTAVYYCAREGYYGPSPFHHYAMDYWGQGTLVTVSS VL: DIQMTQSPSSLSASVGDRVTITCQASQDISNYLNWYQQKPGKAPKLLIYYTSTLHTGVPSRFSGSGSGTDYTFTISSLQPEDIATYYCQQYSKLPYTFGQGTKLEIK
